B9: human nectin-1 ectodomain (D1-D3) (domain or fragment)
chain: QVVQVNDSMYGFIGTDVVLHCSFANPLPSVKITQVTWQKSTNGSKQNVAIYNPSMGVSVLAPYRERVEFLRPSFTDGTIRLSRLELEDEGVYICEFATFPTGNRESQLNLTVMAKPTNWIEGTQAVLRAKKGQDDKVLVATCTSANGKPPSVVSWETRLKGEAEYQEIRNPNGTVTVISRYRLVPSREAHQQSLACIVNYHMDRFKESLTLNVQYEPEVTIEGFDGNWYLQRMDVKLTCKADANPPATEYHWTTLNGSLPKGVEAQNRTLFFKGPINYSLAGTYICEATNPIGTRSGQVEVNITEFP
modifications: natively glycosylated (N-linked glycans)

The series “AUC” deals with the molecule itself. Description: AUC.
The series “crystal structure” concerns the molecule itself. Description: crystal structure.
Series [1] addresses human nectin-3 ectodomain (D1-D3) (human, UniProt Q9NQS3 58-359, natively glycosylated (N-linked glycans)). Description: SPR.
Series [2] deals with B9. Description: AUC.

B1: mouse nectin-2 D1-2 fragment (domain or fragment)
chain: QDVRVRVLPEVRGRLGGTVELPCHLLPPTTERVSQVTWQRLDGTVVAAFHPSFGVDFPNSQFSKDRLSFVRARPETNADLRDATLAFRGLRVEDEGNYTCEFATFPNGTRRGVTWLRVIAQPENHAEAQEVTIGPQSVAVARCVSTGGRPPARITWISSLGGEAKDTQEPGIQAGTVTIISRYSLVPVGRADGVKVTCRVEHESFEEPILLPVTLSVRY
modifications: natively glycosylated (N-linked glycans)
As for B1, in “AUC”, the Kd was found to be 7.62 µM and the “stoichiometry N” value amounted to 2.

B2: mouse nectin-4 ectodomain (D1-D3) (domain or fragment)
chain: GELETSDVVTVVLGQDAKLPCFYRGDPDEQVGQVAWARVDPNEGIRELALLHSKYGLHVNPAYEDRVEQPPPPRDPLDGSVLLRNAVQADEGEYECRVSTFPAGSFQARMRLRVLVPPLPSLNPGPPLEEGQGLTLAASCTAEGSPAPSVTWDTEVKGTQSSRSFTHPRSAAVTSEFHLVPSRSMNGQPLTCVVSHPGLLQDRRITHTLQVAFLAEASVRGLEDQNLWQVGREGATLKCLSEGQPPPKYNWTRLDGPLPSGVRVKGDTLGFPPLTTEHSGVYVCHVSNELSSRDSQVTVEVLDPEDPG
modifications: natively glycosylated
B2: in “AUC”, the dissociation constant (Kd) worked out at 278 µM and the “stoichiometry N” value came to 2.

B3: mouse nectin-2 ectodomain (D1-D3) (domain or fragment)
chain: QDVRVRVLPEVRGRLGGTVELPCHLLPPTTERVSQVTWQRLDGTVVAAFHPSFGVDFPNSQFSKDRLSFVRARPETNADLRDATLAFRGLRVEDEGNYTCEFATFPNGTRRGVTWLRVIAQPENHAEAQEVTIGPQSVAVARCVSTGGRPPARITWISSLGGEAKDTQEPGIQAGTVTIISRYSLVPVGRADGVKVTCRVEHESFEEPILLPVTLSVRYPPEVSISGYDDNWYLGRSEAILTCDVRSNPEPTDYDWSTTSGVFPASAVAQGSQLLVHSVDRMVNTTFICTATNAVGTGRAEQVILVRESP
modifications: natively glycosylated
Consider B3, for which, in “AUC”, the Kd was 1.09 µM and the “stoichiometry N” value came out at 2.

B4: human nectin-4 D1-2 fragment (domain or fragment)
chain: GELETSDVVTVVLGQDAKLPCFYRGDSGEQVGQVAWARVDAGEGAQELALLHSKYGLHVSPAYEGRVEQPPPPRNPLDGSVLLRNAVQADEGEYECRVSTFPAGSFQARLRLRVLVPPLPSLNPGPALEEGQGLTLAASCTAEGSPAPSVTWDTEVKGTTSSRSFKHSRSAAVTSEFHLVPSRSMNGQPLTCVVSHPGLLQDQRITHILHVS
In the case of B4, the binding result in “crystal structure” is “binds”.

B5: human nectin-2 ectodomain (D1-D3) (domain or fragment)
chain: QDVRVQVLPEVRGQLGGTVELPCHLLPPVPGLYISLVTWQRPDAPANHQNVAAFHPKMGPSFPSPKPGSERLSFVSAKQSTGQDTEAELQDATLALHGLTVEDEGNYTCEFATFPKGSVRGMTWLRVIAKPKNQAEAQKVTFSQDPTTVALCISKEGRPPARISWLSSLDWEAKETQVSGTLAGTVTVTSRFTLVPSGRADGVTVTCKVEHESFEEPALIPVTLSVRYPPEVSISGYDDNWYLGRTDATLSCDVRSNPEPTGYDWSTTSGTFPTSAVAQGSQLVIHAVDSLFNTTFVCTVTNAVGMGRAEQVIFVRETP
modifications: natively glycosylated
Consider B5, for which the binding result in series [1] is listed as “binds”. In addition, in “AUC”, binding was put at a Kd of 0.392 µM and the “stoichiometry N” value stood at 2.

B6: mouse nectin-1 ectodomain (D1-D3) (domain or fragment)
chain: QVVQVNDSMYGFIGTDVVLHCSFANPLPSVKITQVTWQKASNGSKQNMAIYNPTMGVSVLPPYEKRVEFLRPSFIDGTIRLSGLELEDEGMYICEFATFPTGNRESQLNLTVMAKPTNWIEGTRAVLRARKGQDDKVLVATCTSANGKPPSAVSWETRLKGEAEYQEIRNPNGTVTVISRYRLVPSREAHRQSLACIVNYHLDRFRESLTLNVQYEPEVTIEGFDGNWYLQRTDVKLTCKADANPPATEYHWTTLNGSLPKGVEAQNRTLFFRGPITYSLAGTYICEATNPIGTRSGQVEVNITEFP
modifications: natively glycosylated
Turning to B6, in the series “AUC”, binding was characterised by a dissociation constant (Kd) of 22.6 µM and the “stoichiometry N” value turned out to be 2.

B7: human nectin-4 ectodomain (D1-D3) (domain or fragment)
chain: GELETSDVVTVVLGQDAKLPCFYRGDSGEQVGQVAWARVDAGEGAQELALLHSKYGLHVSPAYEGRVEQPPPPRNPLDGSVLLRNAVQADEGEYECRVSTFPAGSFQARLRLRVLVPPLPSLNPGPALEEGQGLTLAASCTAEGSPAPSVTWDTEVKGTTSSRSFKHSRSAAVTSEFHLVPSRSMNGQPLTCVVSHPGLLQDQRITHILHVSFLAEASVRGLEDQNLWHIGREGAMLKCLSEGQPPPSYNWTRLDGPLPSGVRVDGDTLGFPPLTTEHSGIYVCHVSNEFSSRDSQVTVDVLDPQ
modifications: natively glycosylated
As to B7, the binding result in series [2] is “binds”. Also, in the series “AUC”, binding was characterised by a dissociation constant (Kd) of 153 µM and the “stoichiometry N” value was found to be 2.

B8: human nectin-1 ectodomain (D1-D3) F129D (domain or fragment)
chain: QVVQVNDSMYGFIGTDVVLHCSFANPLPSVKITQVTWQKSTNGSKQNVAIYNPSMGVSVLAPYRERVEFLRPSFTDGTIRLSRLELEDEGVYICEFATDPTGNRESQLNLTVMAKPTNWIEGTQAVLRAKKGQDDKVLVATCTSANGKPPSVVSWETRLKGEAEYQEIRNPNGTVTVISRYRLVPSREAHQQSLACIVNYHMDRFKESLTLNVQYEPEVTIEGFDGNWYLQRMDVKLTCKADANPPATEYHWTTLNGSLPKGVEAQNRTLFFKGPINYSLAGTYICEATNPIGTRSGQVEVNITEFP
modifications: natively glycosylated
For the molecule B8, in the series “AUC”, binding was put at a Kd of 820 µM and the “stoichiometry N” value stood at 2.
As for B9, in series [1], the binding result is given as “binds”. In addition, in “AUC”, the affinity, expressed as Kd, was 17.5 µM and the “stoichiometry N” value came out at 2.
